Experimental data published in patent US20220402989A1 (Regeneron, published 2022).

What was measured:
[1] = target: human PD1 (amino acids M1-L288 of NP_005009.2 with a 2Q=>E mutation) stably expressed on engineered reporter … (human, UniProt Q15116 25-288); assay: cell-based or functional assay
[2] = target: T1, human PD-1 expressed with a C-terminal myc-myc-hexahistidine tag (human); assay: SPR (Biacore), antibody captured via anti-human Fc, hPD-1.mmH in solution, 25 C
T1 construct: also called hPD-1.mmH; hPD-1.mmh
Method: The CM5 Biacore sensor surface was derivatized by amine coupling with a monoclonal mouse anti-human Fc antibody (GE, #BR-1008-39). All Biacore binding studies were performed in a buffer composed of 0.01M HEPES pH 7.4, 0.15M NaCl, 3 mM EDTA, 0.05% v/v Surfactant P20 (HBS-EP running buffer). […] Antibody-reagent association was monitored for 4 or 5 minutes, while dissociation in HBS-EP running buffer was monitored for 10 minutes. […] All binding kinetics experiments were performed at 25° C.
Kinetic association (kₐ) and dissociation (kd) rate constants were determined by fitting the real-time sensorgrams to a 1:1 binding model using Scrubber 2.0c curve fitting software. Binding dissociation equilibrium constants (KD) and dissociative half-lives (t½) were calculated from the kinetic rate constants as: […]

[3] = target: T2, human PD1 expressed endogenously on YT/STAT5 luc/Cl4 cells (human, UniProt Q15116 25-288); assay: flow cytometry (FACS) titration on YT/STAT5 luc/CL4 cells with endogenous hPD1, APC anti-human Fc-gamma secondary, MFI_APC
T2 construct: whole, on cells; also called hPD1; PD1+ cells
Method: To compare hPD1 binding of αhPD1-IL2Rα-IL2 proteins to their respective parental anti-hPD1 antibodies, YT/STAT5 luc/Cl4 cells expressing endogenous levels of hPD1 were washed twice with FACS wash (PBS+2% FBS) and resuspended at 1×10\hat{ }6 cells/ml in FACS wash. Cells (100 μl/well) were then plated in 96 well U bottom plates. Cells were spun down (1200 RPM, 5 minutes) and resuspended in 100 μl/well of the various antibody dilutions listed in mAb clone IDs. The antibody titrations were prepared starting at 20 μg/ml with a 6-fold dilution using FACS wash. Cells were incubated with the antibodies for 30 minutes at 4° C. The unbound antibodies were then removed by washing the cells twice using FACS wash. The cells were then resuspended in 100 μl/well of 1:200 dilution of APC-anti-human Fcγ secondary antibody. The cells were incubated for 30 minutes at 4° C. The unbound antibodies were then removed by washing the cells twice using FACS wash. The cells were then resuspended in 160 μl/well of FACS wash and run to test binding using BD FACSCanto™ Flow Cytometer.

T1 sequence (chain, as listed by the source limits assumed): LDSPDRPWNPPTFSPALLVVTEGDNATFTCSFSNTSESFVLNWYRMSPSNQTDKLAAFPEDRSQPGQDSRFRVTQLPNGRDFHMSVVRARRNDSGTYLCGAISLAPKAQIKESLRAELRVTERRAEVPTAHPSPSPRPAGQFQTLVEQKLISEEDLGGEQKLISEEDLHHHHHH
T2 sequence (Q15116 25-288): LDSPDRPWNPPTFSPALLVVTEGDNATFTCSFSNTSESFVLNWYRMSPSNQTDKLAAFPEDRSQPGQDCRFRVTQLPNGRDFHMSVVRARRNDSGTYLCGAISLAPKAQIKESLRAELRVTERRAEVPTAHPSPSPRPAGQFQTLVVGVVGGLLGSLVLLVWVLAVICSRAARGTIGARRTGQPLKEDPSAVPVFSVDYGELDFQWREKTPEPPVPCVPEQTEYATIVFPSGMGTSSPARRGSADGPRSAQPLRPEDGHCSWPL
Sequence of human PD1 (amino acids M1-L288 of NP_005009.2 with a 2Q=>E mutation) stably expressed on engineered reporter … (Q15116 25-288, change not shown): as the sequence (Q15116 25-288) above

Binder	Fold induction, AP1-Luc PD1 antagonistic assay [1] [fold]	90 nM or 100 nM hPD-1.mmH Bind (RU) [2] [RU]	Kd [2] [nM]	koff [2] [s⁻¹]	kon [2] [M⁻¹ s⁻¹]	t1/2 [2] [min]	EC50 [3] [nM]	EC50 (M), AP1-Luc PD1 antagonistic assay [1] [M]
mAb29512 (antibody, V domains shown, The full chains are those of H4H29512 (human IgG4 Fc with S108P); also called H4H29512) VH: QVQLVQSGTEVRKPGSSVKVSCKTSGVTFNNYAITWVRQAPGQGLEWMGGIIPVFSPPNYAQKFQGRVTITADESTNTAYMELNSLRSDDTAIYFCAREGERGYTYGYDYWGQGTLVTVSS VL: not shown	1.29	124	3.1	0.000427	138000	27.1	5.69	–
mAb9048 (antibody, V domains shown, The full chains are those of H4H9048 (human IgG4 Fc with S108P); also called H4H9048) VH: QVQLVQSGAEVKRPGSSVKVSCKVSGVTFRNFAIIWVRQAPGQGLEWMGGIIPFFSAANYAQSFQGRVTITPDESTSTAFMELASLRSEDTAVYYCAREGERGHTYGFDYWGQGTLVTVSS VL: not shown	1.24	52.7	8.95	0.00123	137000	9.4	3.48	–
REGN2810 (antibody, human IgG4 S228P, kappa, V domains shown, Human IgG4 Fc with the S108P hinge mutation; also called mAb7798; cemiplimab) VH: EVQLLESGGVLVQPGGSLRLSCAASGFTFSNFGMTWVRQAPGKGLEWVSGISGGGRDTYFADSVKGRFTISRDNSKNTLYLQMNSLKGEDTAVYYCVKWGNIYFDYWGQGTLVTVSS VL: DIQMTQSPSSLSASVGDSITITCRASLSINTFLNWYQQKPGKAPNLLIYAASSLHGGVPSRFSGSGSGTDFTLTIRTLQPEDFATYYCQQSSNTPFTFGPGTVVDFRR	19.2	88.7	2.56	0.000253	98800	45.7	0.774	3.67e-09
